Results published in paper PMC10112802.

B1: KSHV viral interferon regulatory factor 1, wild type, Flag-tagged (vIRF1-WT-Flag) [modified: lysine propionylation at Lys406 and Lys442 and lysine acetylation, as found on vIRF1 … (parent)
chain 1: MDPGQRPNPFGAPGAIPKKPCLSQGSPGTSGSGAPCDEPSRSESPGEGPSGTGGSAAAGDITRQAVVAAITEWSRTRQLRISTGASEGKASIKDWIVCQVNSGKFPGVEWEDEERTRFRIPVTPLADPCFEWRRDGELGVVYIRERGNMPVDASFKGTRGRRRMLAALRRTRGLQEIGKGISQDGHHFLVFRVRKPEEEQCVECGVVAGAVHDFNNMARLLQEGFFSPGQCLPGEIVTPVPSCTTAEGQEAVIDWGRLFIRMYYNGEQVHELLTTSQSGCRISSALRRDPAVHYCAVGSPGQVWLPNVPNLACEIAKRELCDTLDACAKGILLTSSCNGIFCVCYHNGPVHFIGNTVPPDSGPLLLPQGKPTRIFNPNTFLVGLANSPLPAPSHVTCPLVKLWLGKPVAVGKLEPHAPSPRDFAARCSNFSDACVVLEIMPKPLWDAMQ
chain 2: MGTPKPRILPWLVSQLDLGQLEGVAWVNKSRTRFRIPWKHGLRQDAQQEDFGIFQAWAEATGAYVPGRDKPDLPTWKRNFRSALNRKEGLRLAEDRSKDPHDPHKIYEFVNSGVGDFSQPDTSPDTNGGGSTSDTQEDILDELLGNMVLAPLPDPGPPSLAVAPEPCPQPLRSPSLDNPTPFPNLGPSENPLKRLLVPGEEWEFEVTAFYRGRQVFQQTISCPEGLRLVGSEVGDRTLPGWPVTLPDPGMSLTDRGVMSYVRHVLSCLGGGLALWRAGQWLWAQRLGHCHTYWAVSEELLPNSGHGPDGEVPKDKEGGVFDLGPFIVDLITFTEGSGRSPRYALWFCVGESWPQDQPWTKRLVMVKVVPTCLRALVEMARVGGASSLENTVDLHISNSHPLSLTSDQYKAYLQDLVEGMDFQGPGES

Variants of: B1
Assay: co-immunoprecipitation (anti-Myc IP, anti-Flag Western blot)
Conditions: with Myc-tagged IRF3 (IRF3-Myc); HEK293T cells; parent: 1

Row | Variant | ratio to parent
1 | chain 1 K89R K93R K104R K156R K179R K195R | 0.7
2 | chain 1 K442R | 0.2
3 | chain 1 K406R | 0.5
4 | chain 1 K317R K329R K370R K401R K406R K412R K442R | 0.1
